From patent publication US20120316071A1 (published 2012)
Positions count from the first letter of the chain named. Names may count otherwise. One block for each binder: values may come before it.

What was measured:
[1] = target: T1, rHuman IGF-1 sR, CF (R&D Systems Cat#391-GR) (human, UniProt P08069 31-932); assay: ECL Multispot (MSD), 10 nM Fab; blank 198
T1 construct: Bought soluble receptor; also called insulin-like growth factor-1 soluble receptor

[2] = target: T2, rHuman Notch-1/Fc Chimera, CF (R&D Systems Cat#3647-TK) (human, UniProt P46531 19-526); assay: ECL Multispot (MSD), 10 nM Fab; blank 198
T2 construct: Bought reagent; Fc part of the bought chimera not given

[3] = target: T3, rHuman HGF R/c-MET/Fc Chimera, CF (R&D Systems Cat#358-MT/CF) (human, UniProt P08581 25-932); assay: ECL Multispot (MSD), 10 nM Fab; blank 198
T3 construct: Bought reagent; also called HGF R/Fc; hepatocyte growth factor receptor; Fc part of the bought chimera not given

[4] = target: T4, rHuman Erythropoietin R/Fc Chimera, CF (R&D Systems Cat#963-ER) (human, UniProt P19235 25-250); assay: ECL Multispot (MSD), 10 nM Fab; blank 198
T4 construct: Bought reagent; also called EPO R; EPO R/Fc; Fc part of the bought chimera not given
T4 sequence (looked up): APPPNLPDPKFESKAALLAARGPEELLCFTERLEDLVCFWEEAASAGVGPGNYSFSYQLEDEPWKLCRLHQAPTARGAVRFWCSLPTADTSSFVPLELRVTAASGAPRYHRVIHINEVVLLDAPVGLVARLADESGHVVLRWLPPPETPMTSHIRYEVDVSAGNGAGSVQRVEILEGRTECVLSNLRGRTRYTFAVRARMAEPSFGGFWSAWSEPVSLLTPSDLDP

[5] = target: T5, rHuman CD44/Fc Chimera, CF (R&D Systems Cat#3660-CD) (human, UniProt P16070 21-220); assay: ECL Multispot (MSD), 10 nM Fab; blank 198
T5 construct: Bought reagent; Fc part of the bought chimera not given

[6] = target: T6, rHuman ErbB2/Fc Chimera, CF (R&D Systems Cat#1129-ER) (human, UniProt P04626 23-652); assay: ECL Multispot (MSD), 10 nM Fab; blank 198
T6 construct: Bought reagent; also called human epidermal growth factor 2 receptor; Fc part of the bought chimera not given

[7] = target: T7, rHuman P-Cadherin/Fc Chimera, CF (R&D Systems Cat#861-PC) (human, UniProt P22223 108-654); assay: ECL Multispot (MSD), 10 nM Fab; blank 198
T7 construct: Bought reagent; Fc part of the bought chimera not given

[8] = target: T8, rHuman EGF R/Fc Chimera, CF (R&D Systems Cat#344-ER) (human, UniProt P00533 25-645); assay: ECL Multispot (MSD), 10 nM Fab; blank 198
T8 construct: Bought reagent; also called epidermal growth factor receptor; Fc part of the bought chimera not given

[9] = target: T1, rHuman IGF-1 sR, CF (R&D Systems …); assay: ECL Multispot (MSD), 10 nM Fab; blank 320
[10] = target: T2, rHuman Notch-1/Fc Chimera, CF (R&D …); assay: ECL Multispot (MSD), 10 nM Fab; blank 320
[11] = target: T3, rHuman HGF R/c-MET/Fc Chimera, CF (R&D …); assay: ECL Multispot (MSD), 10 nM Fab; blank 320
[12] = target: T4, rHuman Erythropoietin R/Fc Chimera, CF …; assay: ECL Multispot (MSD), 10 nM Fab; blank 320
[13] = target: T5, rHuman CD44/Fc Chimera, CF (R&D Systems …); assay: ECL Multispot (MSD), 10 nM Fab; blank 320
[14] = target: T6, rHuman ErbB2/Fc Chimera, CF (R&D …); assay: ECL Multispot (MSD), 10 nM Fab; blank 320
[15] = target: T7, rHuman P-Cadherin/Fc Chimera, CF (R&D …); assay: ECL Multispot (MSD), 10 nM Fab; blank 320
[16] = target: T8, rHuman EGF R/Fc Chimera, CF (R&D …); assay: ECL Multispot (MSD), 10 nM Fab; blank 320
[17] = target: T1, rHuman IGF-1 sR, CF (R&D Systems …); assay: ECL Multispot (MSD), 10 nM Fab; blank 372
[18] = target: T2, rHuman Notch-1/Fc Chimera, CF (R&D …); assay: ECL Multispot (MSD), 10 nM Fab; blank 372
[19] = target: T3, rHuman HGF R/c-MET/Fc Chimera, CF (R&D …); assay: ECL Multispot (MSD), 10 nM Fab; blank 372
[20] = target: T4, rHuman Erythropoietin R/Fc Chimera, CF …; assay: ECL Multispot (MSD), 10 nM Fab; blank 372
[21] = target: T5, rHuman CD44/Fc Chimera, CF (R&D Systems …); assay: ECL Multispot (MSD), 10 nM Fab; blank 372
[22] = target: T6, rHuman ErbB2/Fc Chimera, CF (R&D …); assay: ECL Multispot (MSD), 10 nM Fab; blank 372
[23] = target: T7, rHuman P-Cadherin/Fc Chimera, CF (R&D …); assay: ECL Multispot (MSD), 10 nM Fab; blank 372
[24] = target: T8, rHuman EGF R/Fc Chimera, CF (R&D …); assay: ECL Multispot (MSD), 10 nM Fab; blank 372
[25] = target: T9, rHuman EGF R/Fc Chimera, CF (R&D Systems Cat#344-ER) (human, UniProt P00533 25-645); assay: ECL Multispot (MSD) assay, antigen spotted on plate, 10 nM Fab; blank spot of this row 290
T9 construct: Bought reagent; also called epidermal growth factor receptor; Fc part of the bought chimera not given

[26] = target: T10, rHuman ErbB2/Fc Chimera, CF (R&D Systems Cat#1129-ER) (human, UniProt P04626 23-652); assay: as above
T10 construct: Bought reagent; also called human epidermal growth factor 2 receptor; Fc part of the bought chimera not given

[27] = target: T11, rHuman IGF-1 sR, CF (R&D Systems Cat#391-GR) (human, UniProt P08069 31-932); assay: as above
T11 construct: Bought soluble receptor; The column head prints only 'IGF-1'; also called insulin-like growth factor-1 soluble receptor

[28] = target: T12, rHuman HGF R/c-MET/Fc Chimera, CF (R&D Systems Cat#358-MT/CF) (human, UniProt P08581 25-932); assay: as above
T12 construct: Bought reagent; also called HGF R/Fc; hepatocyte growth factor receptor; Fc part of the bought chimera not given

[29] = target: T13, rHuman P-Cadherin/Fc Chimera, CF (R&D Systems Cat#861-PC) (human, UniProt P22223 108-654); assay: as above
T13 construct: Bought reagent; Fc part of the bought chimera not given

ECL signal [1]: 230
ECL signal [2]: 336
ECL signal [3]: 258
ECL signal [4]: 228
ECL signal [5]: 214
ECL signal [6]: 200
ECL signal [7]: 280
ECL signal [8]: 255
ECL signal [9]: 270
ECL signal [10]: 390
ECL signal [11]: 269
ECL signal [12]: 421
ECL signal [13]: 385
ECL signal [14]: 413
ECL signal [15]: 301
ECL signal [16]: 324
ECL signal [17]: 318
ECL signal [18]: 433
ECL signal [19]: 339
ECL signal [20]: 252
ECL signal [21]: 298
ECL signal [22]: 513
ECL signal [23]: 338
ECL signal [24]: 460
B1: Fab VH1-46_IGHD6-6*01_IGHJ1*01 S102A/S103P/S104F (APF) & L6_IGKJ1*01 (Fab, V domains shown)
VH: QVQLVQSGAEVKKPGASVKVSCKASGYTFTSYYMHWVRQAPGQGLEWMGIINPSGGSTSYAQKFQGRVTMTRDTSTSTVYMELSSLRSEDTAVYYCAREEYAPFSAEYFQHWGQGTLVTVSS
VL: not shown
notes: Tested as a Fab made in E. coli; The heavy chain plasmid A adds CH1 with His6 and Flag tags; The light chain plasmid C adds kappa CL; also called H:APF & L:wt; APF triple mutant

ECL signal [25]: 409
ECL signal [26]: 370
ECL signal [27]: 345
ECL signal [28]: 493
ECL signal [29]: 461
B2: Fab VH1-46_IGHD6-6*01_IGHJ1*01 S102A/S103P/S104F/H111F (APFF) & L6_IGKJ1*01 (Fab, V domains shown)
VH: B1 VH with H111F
VL: not shown
notes: Fab format as for APF (CH1 and kappa CL from the expression plasmids); also called APF H111F; H:APFF & L:wt
